In publication PMC3637252, “Structural Basis of the Induced-Fit Mechanism of 1,4-Dihydroxy-2-Naphthoyl Coenzyme A Synthase from the Crotonase Fold Superfamily” (PLoS ONE, 2013):
Positions count from the first letter of the chain named. Names may count otherwise.

Columns and labels:
scMenB [1] = molecular target: T1, scMenB (Synechocystis sp. PCC 6803, UniProt P73495); experiment: X-ray crystal structure, […] Å; type: binding; details: pH 6.0
T1 construct: gene menB; recombinant, purified to homogeneity; homohexamer
T1 sequence (P73495 1-275): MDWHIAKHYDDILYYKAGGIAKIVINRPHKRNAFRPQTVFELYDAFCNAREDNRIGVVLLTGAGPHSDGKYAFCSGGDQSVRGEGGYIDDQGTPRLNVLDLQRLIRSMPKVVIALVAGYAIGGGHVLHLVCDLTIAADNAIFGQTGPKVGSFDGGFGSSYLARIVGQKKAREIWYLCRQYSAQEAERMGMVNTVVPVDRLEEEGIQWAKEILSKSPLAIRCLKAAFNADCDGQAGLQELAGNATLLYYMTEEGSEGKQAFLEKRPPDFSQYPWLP

ecMenB = molecular target: T2, ecMenB (Escherichia coli, UniProt P0ABU0); experiment: X-ray crystal structure, […] Å; type: binding; details: co-crystal, pH 5.5; active site, product analog; chloride at the bicarbonate site
T2 construct: gene menB; recombinant; homohexamer, active site formed by two subunits across the trimer-trimer interface
T2 sequence (P0ABU0 whole entry): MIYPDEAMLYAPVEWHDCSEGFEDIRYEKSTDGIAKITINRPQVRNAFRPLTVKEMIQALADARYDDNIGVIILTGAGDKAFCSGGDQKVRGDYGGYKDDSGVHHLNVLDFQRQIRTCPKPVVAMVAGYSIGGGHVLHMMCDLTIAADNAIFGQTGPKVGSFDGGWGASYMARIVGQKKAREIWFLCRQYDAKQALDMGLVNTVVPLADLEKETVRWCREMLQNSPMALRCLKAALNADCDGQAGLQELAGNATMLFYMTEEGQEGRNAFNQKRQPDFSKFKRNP

scMenB [2] = molecular target: T1, scMenB; experiment: X-ray crystal structure, […] Å; type: binding; details: co-crystal, pH 5.70; active site, product analog; chloride at the bicarbonate site
[3] = molecular target: the molecule itself; experiment: crystal structure; scMenB (5 mg/ml) co-crystallised with 5 mM HNA-CoA; 0.15 M ammonium acetate, 0.3 M ammonium sulfate, 16% PEG 3350, 100 mM Bis-Tris pH 5.70; 2.35 A
purified protein = substrate: CC(C)(COP(=O)(O)OP(=O)(O)OC[C@H]1O[C@@H](n2cnc3c(N)ncnc32)[C@H](O)[C@@H]1OP(=O)(O)O)[C@@H](O)C(=O)NCCC(=O)NCCSC(=O)CCC(=O)c1ccccc1C(=O)O; experiment: purified protein; type: biochemical, Escherichia coli; details: 200 mM phosphate pH 7.0, 20 mM NaHCO3, OSB-CoA made in situ from SHCHC with MenC and MenE
[4] = molecular target: the molecule itself; experiment: crystal structure; ecMenB co-crystallised with HNA-CoA; hanging drop, 294 K; 200 mM (NH4)2SO4, 23% PEG 3,350, 100 mM Bis-Tris pH 5.5; protein 10 mg/ml with 10 mM NaHCO3, 10 mM HNA-CoA, 20 mM KCl; 1.84 A

O=C(O)O [bicarbonate]
X-ray crystal structure, 2.00 Å (scMenB [1]; ternary complex with SA-CoA, bicarbonate site): a bicarbonate ion is found in the place of the chloride ion

CC(C)(COP(=O)(O)OP(=O)(O)OC[C@H]1O[C@@H](n2cnc3c(N)ncnc32)[C@H](O)[C@@H]1OP(=O)(O)O)[C@@H](O)C(=O)NCCC(=O)NCCSC(=O)c1ccccc1O [salicyloyl-CoA]
X-ray crystal structure, 2.00 Å (scMenB [1]; co-crystal, active site, product analog, bicarbonate bound): structures of the yellowish scMenB: HNA-CoA and colorless scMenB: SA-CoA crystals were also solved

CC(C)(COP(=O)(O)OP(=O)(O)OC[C@H]1O[C@@H](n2cnc3c(N)ncnc32)[C@H](O)[C@@H]1OP(=O)(O)O)[C@@H](O)C(=O)NCCC(=O)NCCSC(=O)c1ccc2ccccc2c1O [1-hydroxy-2-naphthoyl-CoA]
X-ray crystal structure, 1.84 Å (ecMenB): The ecMenB:HNA-CoA complex structure was solved by molecular replacement
X-ray crystal structure, 2.35 Å (scMenB [2]): structures of the yellowish scMenB: HNA-CoA and colorless scMenB: SA-CoA crystals were also solved

B1: 1,4-dihydroxy-2-naphthoyl coenzyme A (DHNA-CoA) synthase from Synechocystis sp. PCC 6803 (enzyme)
chain: T1 sequence (P73495 1-275)
notes: DHNA-CoA synthase MenB, Synechocystis sp; PCC 6803; wild type; Crystallised with the small-molecule product analogs HNA-CoA or SA-CoA; also called scMenB; MenB
stoichiometry N [3]: 6

B2: ecMenB (Escherichia coli K-12; F270A) (protein)
chain: MIYPDEAMLYAPVEWHDCSEGFEDIRYEKSTDGIAKITINRPQVRNAFRPLTVKEMIQALADARYDDNIGVIILTGAGDKAFCSGGDQKVRGDYGGYKDDSGVHHLNVLDFQRQIRTCPKPVVAMVAGYSIGGGHVLHMMCDLTIAADNAIFGQTGPKVGSFDGGWGASYMARIVGQKKAREIWFLCRQYDAKQALDMGLVNTVVPLADLEKETVRWCREMLQNSPMALRCLKAALNADCDGQAGLQELAGNATMLFYMTEEGQEGRNAANQKRQPDFSKFKRNP
notes: recombinant; homohexamer, active site formed by two subunits across the trimer-trimer interface
Km (purified protein): 19.7 ± 3.9 µM
kcat (purified protein): 0.0035 ± 0.000167 s⁻¹
kcat/Km (purified protein): 180 ± 10 M⁻¹ s⁻¹

B3: ecMenB (Escherichia coli K-12; R267A) (protein)
chain: B2 chain with R267A, A270F
notes: as for B2
Km (purified protein): 16.6 ± 1.0 µM
kcat (purified protein): 0.00267 ± 0.000167 s⁻¹
kcat/Km (purified protein): 160 ± 20 M⁻¹ s⁻¹

B4: ecMenB (Escherichia coli K-12; K89A) (protein)
chain: B2 chain with K89A, A270F
notes: as for B2
Km (purified protein): 43.3 ± 2.0 µM
kcat (purified protein): 0.0383 ± 0.00133 s⁻¹
kcat/Km (purified protein): 890 ± 30 M⁻¹ s⁻¹

B5: 1,4-dihydroxy-2-naphthoyl coenzyme A (DHNA-CoA) synthase from Escherichia coli (enzyme)
chain: B2 chain with A270F
notes: DHNA-CoA synthase MenB, Escherichia coli; Crystallised with the small-molecule product analog HNA-CoA; also called ecMenB; MenB
stoichiometry N [4]: 6
